The DeepSol protein solubility set

Assay: soluble on expression in E. coli; label from the status in PepcDB or PDB records

Sequence | soluble on expression in E. coli
MGSDKIHHHHHHMVVTEYELKPQNFPRFPLDWSEIFGRKAKIVVEIGFGNGEFLAELARRHPEKDFVGFEVSITSFVKAQKKFKRYNLKNVRLVKVDARFGLRELFPDNSVEKVYINFPCPWPKKRHESRRITSYDFLQTLSAVLEMDGTVEFATDEEWYAREVLDTFESSEYFVVDVFEENFKRDVETRYERKWKSQGKKTFLIVARKVKNGTVKRLMEGENTMAHSVFEGNVTWEKLKELEGKVFKDKNKIFVVKKVYRDGDYLLKVISTDEGGFQQVYYLNLSGRDGKWVLKLDEGSDPYRTPALKWSLRRIPEELTAQGSP | not soluble
MPIPKSAKSDYTKEQKDLVGNICQCKDFYKILNVDKKASPDEIRIAFRKRIREVHPDKCKHPSATEASKVVNNAFSLLMDPAKRRQYDLQNAETSNENLYKRCNRNKNQRKQEYSNTQRQNHKKSEPSNGKRNEQNSSFKQDHNSKNHQSNHQKTKNKKSNPYSNQNNFNNTRKDYREEKSGFSWNTGSA | not soluble
MPAALLISGPCKICDLPAHGNHFGVLSCRACAAFFRRASRSPRFQDKACEYGDCRIFDAGAYRCKICRLKKCYKVGMDASKFQKDRDLISSSNAYLKRTKVYAPQSLANFLGRPEFIISFEPEKASPFKTVIDVTDLVHKAAEIFQEVKVIFWHKPTLHGPIDVFFASNFAVL | soluble
MSLYKLIALDMDGTLLNDDKIISKRNKEAIKKAKNLGYKVVLSTGRPLKGVERYLKELDLVNDDDYAIAFNGGLVQNTKTGEVLGKELMKFEDLDRLYKLSQKFNVNIHMLSINECITPKKNPYTEVEVNINQIPLIEKNFNELPHDTVIVKIMMIDSKEKLDKVEKLLPKEIYDDYSVARSSDIFLEFSPKGVHKGVGLKILSEHLNLKKEELIAVGDAGNDIAMIEYAGLGVAMGNAFPYVKESADYVTDNNETHGVAKVIEKFMLNEGHHHHHH | soluble
MESENIISAADKARILAEALPYIRRFSGSVAVIKYGGNAMTEPALKEGFARDVVLLKLVGIHPVIVHGGGPQINAMLEKVGKKGEFVQGMRVTDKEAMDIVEMVLGGHVNKEIVSMINTYGGHAVGVSGRDDHFIKAKKLLIDTPEQNGVDIGQVGTVESIDTGLVKGLIERGCIPVVAPVGVGEKGEAFNINADLVAGKLAEELNAEKLLMMTNIAGVMDKTGNLLTKLTPKRIDELIADGTLYGGMLPKIASAVEAAVNGVKATHIIDGRLPNALLLEIFTDAGIGSMILGGGEDA | not soluble
MASSSLVRIAVVGDIHGFWNLDEDRKALRVLQERKTKTKRCSNATRYMDFPSFKLSIVGGRPFSHGGDRLFRKNLLVQRYGVHDMEASAGSICRAAHGTPEDHVAIILAHNGPTGLGWQAEDICGKDWGAEGGDHGDPDLEQAIRQLKETTKLSIPLVVFGHMHKELQRGKGNRKMVVQDSDNQTVYVNGAIVPRVKEAKKRGAAESESGGTTRAFTLVEILDGKIKKIAEIWVHVNGSMAKIVEENTLFEDVT | soluble
DAETFHKDELDLAYDRISQQFDTDMGGMNKAPKFPMPSIYLYLLRDYALTGRQGSLQHVELTLDKMAMGGIYDTIGGGFARYSVDGAWFAPHFEKMLYDNGQLLSLYSEAYTVTKKPLYKEVIEETYTWLKREMLSPEGGFYSALDADSEGVEGKFYCWQYEELAQLIQEDFALFCAYYAITENGNWEHGMNILYKRMSDEAFAAAHSISAEALRESVSRWKNILFSERDPREHPGLDDKILASWNGIMLKGLCDAYRILGDAAILNTALMNAEFILTKLYDGKTLFHSYKNKKATIPGFLEDYTHVIDGYLALYEVSLDEQWLRQAITLVNHVIDHFYDDDEGLFFYTSRTSEKLIARKKEIFD | not soluble
MHSFLQFLRDDNPGSLEDHLNFVPSDDLKYELGMLLSSRPLYLETDELPFVSSSVLNYGIKSSVFVVSAGEHSDSVNDEISSRILMMLQRYESRLEEPVVEYLSSDDNYSFFSVTALFFMDMVRLCIKWDKNSGEFSLDE | not soluble
MDEYSPKRHDIAQLKFLCETLYHDCLANLEESNHGWVNDPTSAVNLQLNELIEHIATFALNYKIKYNEDNKLIAQIDEYLDDTFMLFSSYGINTQDLQKWRKSGNRLFRCFVNATRANPVSLSCLEHHHHHH | not soluble
MDMPHSTTHDASPAPCQRCGMAGATCCTIDPTDASLCFPVSRSEWERIVDHCDKRGGFATEPNTRPFVDNLIRLFPGEAREIERLFPPHGFHLRLAVDAKGNCAFLGPEGCTLPREVRPWYCLVFPFWLQGGRIAIFTPSGCVAVREGRTVPGCLALMNFTARDVRRLAGRLRLAWGLPPLDENGETLLEHHHHHH | not soluble
MATYNGQGFIHDQLDSIRNQTLRPDYVLMRDDGSTDDTVKVVEDYIKEHRLDGWSITSNDKNLGWRLNFRQLLIDVLAYEVDYVFFSDQDDTWYHHKNKMQVDIMEERQDINLLSADIDIKKLSEEATIPNNFKFNGEETISKYPLDFSYHNYRQGWTFCLRKSFVDQVMTFYSDNLILSHDNLFAGVSGVIGSGYNLNRSVGEHKRHAENASGNILNMSSSYERHLQELYFVLSYYIILVPFLEKSSSSQLREAKAYLDFNQQRYKNAQNKDFVAILKQMMTKKRFYDSFSNRIRDLVFLLKDIKRS | not soluble
MGSDKIHHHHHHMIGLRLDGYDPDLHHDAAVAFCIRARDDELFSPRHQHRKGQLILALHGAITCEVENAMWMVPPQYAVWLPGSLPHSNHVTAGAELCFLFIEPAAVVMPERCCTLKISPLCRELILSLARRTDPERAQMPTQRLIQVLFDELPQQPQEQLQLPVSGHPKIRQMVETMAQEPARWNTLGQWASVFAMSERNLARLVVKETGLSFRRWRHQLQLILALQALIAGRNVQQTAQMLGYDSTTAFITMFKKGLGQTPGQYLTGELLLPHN | not soluble
MGSDKIHHHHHHMRTSLLYKIKEEERILPSKNLKGNEIIFILAFPDIYKYGLPNLGIQTLYKELYLRDDVAVDRYYTDEDQPFSFEYGFKLKDSDFIGISFQYEGIVLNAFKILKAGSIPLINLLREENDPIIIGGGPVANYNPLPLSLVCDVIVLGEAEEAIHKIIDSYKVYRNVKRKRMKFLQAVSQIEGIYVPCIHGFFQTGMVKQTSPVDINEHPAHSIFVTKNTVYEERVFSIEVRRGCTQRCRFCYMGHRLKPPRTLRWETFKKIVDLAIDQCNVEIIKLFYEGLETRIVEHYLEYIIKKGGRVRIGSQRLEKLSKRIIEIAAISGQRKITVAPETSGRLRKVIGKHEIKDEEILEVVRISSLYGIPDFGLYFILAIPGETFEDLDKIADLIMKVRHQMNKLKNTDGRLEIGINPLYPKPFTPFQYVKLPSLKNIEDRFLYIVEKVKKEGFPVVISNDVVDEKVEKRQKDENENESLVKFETTVFHPISLLQPMISRGGLEIAFLLHYLHSKRFNTVSDLENLLNEFGINAAWYFEEYIDKYCPWKIQKTLISEDYLLKEYFKALNFISTDEECKLNCSQCFNRCIDISTTNYQGGMSNA | not soluble
MPERLSRMSKKHKMVWGTLNGLDDWDYNVFELQAAIDGDDINCKNDQSGCGALFITMYALVVKYGFLRKFEINERIFLNWLSAVEGGYHANPYHNSMHAADVLHITHYLLSKGGLAELCKLNDRQVLAALFAAAIHDYNHPGINNNFSILTQTYNATLYNDRSVLENMHVASVFELMRNPALNILACFSEEHWRDFRNTVIDMVLATDMSLHEKYMTQFKRRLSEKRPFTEDCDQNLALAMALKLADISNCCRPLPLYLKWSERVSDEFYTQGDRERSLGMSCSPFMDRQTPMIAEGQTSFINYIFIPFLEVMAEFLPSMGFTLGLAAVCKSHRLVG | soluble
MGSDKIHHHHHHMQSRMHPRYYLSLEIFEREQKKIFRKAWLFAGLKTLLSEHNAFITRRIAGIPIVIQNFHGELRAFENVCLHRNALLQTEAVGKRPLVCAYHAWRYDAEGRVDHIPECDAVYRFSAEEKQGLKLRRFALHAVGNVLFINLDTDPLPFEEQFTPAFIDLLESSSNTYDTEVMVTTWHGKFNWKLAYENLRDANHPRFVHPKSLAKTVKFTPTVDEALFRESGLQLTDTSPSALRREMRRFSHAGADAPIPDLQHFGWHELVERWGDQDSYYNWLAFPNLHIASANGGFSFTLEHHIPIAPDRTDLEIYWFTARKKQAYAFSHQVLLAQMHGSKLVVGEDVEIMEQVQAALHADAPLPNQGAYESSNRLVERWYTTLMDGDHDI | not soluble
MSLADDHIYVTSSGGSFLENVRKHMAEPFEKQSGVKVTLVPGTNPAHALKILSSRGTPPYDVAAFGGNDMYRLIRAKKLAQVDEKSVPSLADVPEKFKADWEGCGSLYDYSSVGIAYRPDKIQGGVKSWKEFVERTVAGEFGKQVFFNNLSSNVRGAEVLSMFGKIYGSGYGDIEASIATLERMKPHIFKFFTAFNDPVVLLTSGEGAIGPGWDGRTFIAEDSTKGMVKWVDPTEGAVSSGPVMAVVKGGKEDLAKAFMNYALGEEAQKAFCEAMYYGAVNRKVQYSEKLKHRLPSIDSVQLVDTALLIKNMSALLDLWNKRIASEGHHHHHH | soluble
GPLGSPILELKEKIQPEILELIKQQRLNRLVEGTCFRKLNARRRQDKFWYCRLSPNHKVLHYGDLEESPQGEVPHDSLQDKLPVADIKAVVTGKDCPHMKEKGALKQNKEVLELAFSILYDSNCQLNFIAPDKHEYCIWTDGLNALLGK | soluble
MKVALYAGTYVKDKDGAVRSIYQLVSSMIKNGHQVVVWTPDFTPEANASVPVNLTPSVPIPLYPDYKLGFYNAVTERQLDEFAPDIVHISTPDIVGRKFLHYAKRKGLPVGSAYHTDFPSYLSYYRLGFAEPAVWRFLRKFYNACDVTLAPNESVRERLTGKGIERVELWSRGIDKELFDPSRRSAKLRRAWDAEGRTVIIYAGRFVLYKDIEVVMSLYQRFADEGLGDRVRFVMIGSGPEEAQMRARMPEAVFTGYLTGTTLPEAYASGDLFLFPSTTEAFCNVTLEALATGLPAVVSDVGGCQELVERSGGGFVAKAGDVGDFYACCTKLMQDGELFRSMRERGLAFAKDKSWAAVNGKLIDRYLELIAAKARRLEHHHHHH | not soluble
MIGAQVDMHFTKGYPSVDLSDPWNKNVLLEVVRMAIPLMKHPNYYRINGKPAIFIWNEAIFYNRAEAYREIKEMVKRDLGVEPYIIADVLPRIMADRKVIPGTPEGEWYIRNLLLRKNDGGDKFIDAYTSWIGFYSVQGETALTPREIEMYSKLYREHVEAWSSYTNGRNKCFIPTVSPGFDRTFDKSFNQQFPIPRDPKRFAEMLKIALDSLGNCKEIRIDTWNDFYEGTFIEPSVSDGFTYLEVLEEFIKELKENLEHHHHHH | not soluble
MKKTLLAIVAVSALSACRQAEEGPPPLPRQISDRSVGHYCSMNLTEHNGPKAQIFLNGKPDQPVWFSTIKQMFGYTKLPEEPKGIRVIYVTDMGNVTDWTNPNADTEWMDAKKAFYVIDSGFIGGMGAEDALPFGNKEQAEKFAKDKGGKVVGFDDMPDTYIFK | not soluble
MGSDKIHHHHHHVSPHSPVQLSLPVYLPDDETFNSYYPAAGNDELILSLQASAEGRANKAVYLWGPVKAGRTHLMHATCARANELNRSSFYLPLGIHASISTELLEGLEQLDLVCIDDVDAIAGHPLWEEALFDLYNRVAEHKRCALVVSASATASDAGFALPDLVSRMQWGLTYQLQPMADEEKLAALQRRAAMRGLQLPEDVGRFLLNRLARDLRTLFDVLDRLDKASLVHQRKLTIPFVKEMLRL | not soluble
MFQPQDDQDACYDNSIHYTDSLLGQVFELLKDRRASVMYFADHGLERDPTKKNVYFHGGREASQQAYHVPMFIWYSPVLGDGVDRTTENNIFSTAYNNYLINAWMGVTKPEQPQTLEEVIAHYKGDSRVVDANHDVFDYVMLRKEFTEDKQGNPTPEGQG | not soluble
